Measured values taken from PMC6310021 (Science translational medicine, 2018).
Read-outs that look alike come from different tables or passages of the source.

Experiments:
[1] = molecular target: transgelin-2 (TG2) of rat airway smooth muscle cells (rat (endogenous in rat ASMCs), UniProt Q5XFX0 1-199); assay: radioligand binding
[2] = molecular target: T1, purified rat recombinant TG2 protein (transgelin-2) (rat, UniProt Q5XFX0 1-199); assay: SPR
[3] = molecular target: T1, purified rat recombinant TG2 protein …; assay: SPR; remark: listed apart in the source

T1 sequence (Q5XFX0 whole entry): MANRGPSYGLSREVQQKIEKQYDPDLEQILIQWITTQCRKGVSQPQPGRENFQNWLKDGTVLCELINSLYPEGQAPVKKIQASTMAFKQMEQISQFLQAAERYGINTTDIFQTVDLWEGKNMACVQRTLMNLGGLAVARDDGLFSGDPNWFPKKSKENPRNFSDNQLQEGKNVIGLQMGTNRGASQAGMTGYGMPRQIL
Chain of transgelin-2 (TG2) of rat airway smooth muscle cells (Q5XFX0 whole entry): as above

Row | Binder | Kd [1] [nM] | Kd [2] [nM] | Kd [3] [nM]
1 | 125I-labeled MT-2 (natural protein, 125I label (site not stated)) not shown | 33.4 |  | 
2 | 6×His tag MT-2 recombinant protein (rat metallothionein-2) (natural protein) not shown |  | 110 | 442
